Kd data for 7 molecules are collected here from patent US20210246195A1.

Test [1] has as its target Ara h 2 (purified natural peanut allergen) (Arachis hypogaea) (UniProt Q6PSU2). Briefly: biolayer interferometry. Background: Biolayer interferometry detects binding as a change in optical thickness at a sensor tip.
For test [2] the target is unchanged. The test is described as follows: BLI, antibody on anti-human IgG Fc sensors, Ara h 2 as analyte, top 6 nM.
The target is the same in test [3]. Briefly: not named there (biolayer interferometry in Example 1).

Chain of Ara h 2 (purified natural peanut allergen) (Arachis hypogaea) (Q6PSU2 22-172): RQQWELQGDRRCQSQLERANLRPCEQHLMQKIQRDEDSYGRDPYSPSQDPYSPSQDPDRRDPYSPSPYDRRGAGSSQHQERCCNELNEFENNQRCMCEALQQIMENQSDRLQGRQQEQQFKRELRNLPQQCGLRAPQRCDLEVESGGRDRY

B1: PA15P1D05 (antibody, human IgG1, V domains shown)
VH: QVHLVESGGGVVQPGRSLGLSCVASGFTFNYYAIHWVRQAPGKGLEWVAVVSFDGNIIYYADSVKGRFNISRDNSKNTVNLQMNSLRPDDTAVYYCVRDGEYCSGGNCYWGDFDHWGQGSLVTVSP
VL: EIVLTQSPATLSLSPGERATLSCRASQSISSEYLTWFQQKPGQAPRLLIYGAFNRATGIPDRFSGSGSGTDFTLTISSLEPEDFAVYYCQQYANWWTFGQGTKVEIK
What is called Kd is the free concentration of one partner at which half of the binding sites on the other are occupied at equilibrium, for simple one-to-one binding. With B1, the results for the Kd in test [1] and in test [2] were less than 1 nM and 0.54 nM, respectively.

B2: PA15P1D12 (antibody, human IgG1, V domains shown)
VH: QVHLVESGGGVVQPGRSLGLSCAASGFTFNYYAIHWVRQAPGKGLEWVAVVSFDGNIIYYADSVKGRFNISRDNSKNTVNLQMNSLRADDTAVYYCVRDGEYCSGGNCYWGDFDYWGQGTLVTVSP
VL: EIVLTQSPGTLSLSPGERATLSCRASQSISSEYLTWFQQKPGQAPRLLIYGAFNRATGIPDRFSGSGSGTDFTLTISSLEPEDFAVYYCQQYANWWTFGQGTKVEIK
Take B2: the Kd in test [1] was less than 1 nM; in test [2], 0.65 nM.

B3: PA13P1H08 variant rCDR1-N (antibody, human IgG1, V domains shown)
VH: QVQLVNSGGGVVQPGRSLRLSCVASGFTFSSYGIHWVRQAPGKGLEWVAVISNDGEKSESADSVKGRFTPSRDNSKNTVYLQMNNLRVEDTAVYYCAKVLDYSRYSYYYGMDVWGQGTTVIVSS
VL: EIVLTQSPGTLSLSPGGRGTLSCRTSQTINNAHLAWYQHKPGQAPRLLIYGSSERATGVPDRFSGSGSGSDFTLTISSLEAEDFAVYYCQHYGRSPPYTFGPGTKLDIK
B3 registered a Kd in test [2] of 0.016 nM. In other words, the picomolar range.

B4: PA13P1H08 variant rFWRs-N (antibody, human IgG1, V domains shown)
VH: QVQLVESGGGVVQPGRSLRLSCAASGFTFSTFGMHWVRQAPGKGLEWVAVISNDGEKSYYADSVKGRFTISRDNSKNTLYLQMNSLRAEDTAVYYCAKVLDYSRYSYYYGMDVWGQGTTVTVSS
VL: EIVLTQSPGTLSLSPGGRGTLSCRTSQTINNAHLAWYQHKPGQAPRLLIYGSSERATGVPDRFSGSGSGSDFTLTISSLEAEDFAVYYCQHYGRSPPYTFGPGTKLDIK
In the case of B4, the Kd in test [2] was 0.039 nM. This Kd is about 2.4-fold higher than that of the molecule before.

B5: PA13P1H08 variant rCDR2-N (antibody, human IgG1, V domains shown)
VH: QVQLVNSGGGVVQPGRSLRLSCVASGFTFSTFGIHWVRQAPGKGLEWVAVISYDGSNKESADSVKGRFTPSRDNSKNTVYLQMNNLRVEDTAVYYCAKVLDYSRYSYYYGMDVWGQGTTVIVSS
VL: EIVLTQSPGTLSLSPGGRGTLSCRTSQTINNAHLAWYQHKPGQAPRLLIYGSSERATGVPDRFSGSGSGSDFTLTISSLEAEDFAVYYCQHYGRSPPYTFGPGTKLDIK
As to B5, the values for the equilibrium dissociation constant (Kd) in test [3] and in test [2] were less than 1 nM and 0.008 nM, respectively.

B6: PA12P3D08 (antibody, human IgG1, V domains shown)
VH: QVQLVESGGGVVQPGKSLRLSCAASAFTFRRFAMHWVRQAPGKGLEWVAVISDNGLREDYEDSVKGRFTISRDNSQNTLYLQMNGLRAEDTAVYYCAKVLDYNEYSLYFGMDVWGQGTTVTVSS
VL: EVVLTQSPATLSLSPGERATLSCRTSQAISNNFLAWYQQRPGQPPRLLIYASSRRATDTPDRFTGSGSGTDFTLTITRLEPEDFAVYFCQYYSDSPPYTFGPGTKLEIK
With B6, the Kd in test [2] came to 0.014 nM. That is a picomolar value.

B7: PA12P1C07 (antibody, human IgG1, V domains shown)
VH: QVQLEESGGGVVQPGKSLRLSCVASAFTFKRFAMHWVRQAPGKGLEWVAVISDNGLREDYEDSVKGRFTISRDNSKDTLYLQMNSLRPEDTAIYYCAKVLDYSEYSLYFGMDVWGQGTTVLVSS
VL: EIVLTQSPAILSLSPGDRATLSCRTSQTVNSNFLAWYQQKPGQAPRLLIYGASRRAIDIPDRFTGSGSGTEFTLTIARLEPEDFAVYSCQHYSDSPPYTFGQGTKLEIK
For B7, in test [2], the Kd was determined as 0.017 nM.
